B1: Cilium assembly protein DZIP1L (Homo sapiens), Q8IYY4 (parent)
chain: MQSPAATAEGLSGPLFGAYTFPTFKFQPRHDSMDWRRISTLDVDRVARELDVATLQENIAGITFCNLDREVCSRCGQPVDPALLKVLRLAQLIIEYLLHCQDCLSASVAQLEARLQTSLGQQQRGQQELGRQADELKGVREESRRRRKMISTLQQLLMQTGTHSYHTCHLCDKTFMNATFLRGHIQRRHAGVAEGGKQKKQEQPVEEVLEELRAKLKWTQGELEAQREAERQRQLQEAELIHQREIEAKKEFDKWKEQEWTKLYGEIDKLKKLFWDEFKNVAKQNSTLEEKLRALQSHSVMESKLGSLRDEESEEWLRQARELQALREKTEIQKTEWKRKVKELHEEHMAEKKELQEENQRLQASLSQDQKKAAAQSQCQISTLRAQLQEQARIIASQEEMIQSLSLRKVEGIHKVPKAVDTEEDSPEEEMEDSQDEQHKVLAALRRNPTLLKHFRPILEDTLEEKLESMGIRKDAKGISIQTLRHLESLLRVQREQKARKFSEFLSLRGKLVKEVTSRAKERQENGAVVSQPDGQPSVKSQQSTLVTREAQPKTRTLQVALPSTPAEPPPPTRQSHGSHGSSLTQVSAPAPRPGLHGPSSTPPSSGPGMSTPPFSSEEDSEGDRVQRVSLQPPKVPSRMVPRPKDDWDWSDTETSEENAQPPGQGSGTLVQSMVKNLEKQLEAPAKKPAGGVSLFFMPNAGPQRAATPGRKPQLSEDESDLEISSLEDLPLDLDQREKPKPLSRSKLPEKFGTGPQSSGQPRVPAW
B2: Abl interactor 2 (Homo sapiens), Q9NYB9 (parent)
chain: MAELQMLLEEEIPGGRRALFDSYTNLERVADYCENNYIQSADKQRALEETKAYTTQSLASVAYLINTLANNVLQMLDIQASQLRRMESSINHISQTVDIHKEKVARREIGILTTNKNTSRTHKIIAPANLERPVRYIRKPIDYTILDDIGHGVKWLLRFKVSTQNMKMGGLPRTTPPTQKPPSPPMSGKGTLGRHSPYRTLEPVRPPVVPNDYVPSPTRNMAPSQQSPVRTASVNQRNRTYSSSGSSGGSHPSSRSSSRENSGSGSVGVPIAVPTPSPPSVFPAPAGSAGTPPLPATSASAPAPLVPATVPSSTAPNAAAGGAPNLADGFTSPTPPVVSSTPPTGHPVQFYSMNRPASRHTPPTIGGSLPYRRPPSITSQTSLQNQMNGGPFYSQNPVSDTPPPPPPVEEPVFDESPPPPPPPEDYEEEEAAVVEYSDPYAEEDPPWAPRSYLEKVVAIYDYTKDKEDELSFQEGAIIYVIKKNDDGWYEGVMNGVTGLFPGNYVESIMHYSE
partner: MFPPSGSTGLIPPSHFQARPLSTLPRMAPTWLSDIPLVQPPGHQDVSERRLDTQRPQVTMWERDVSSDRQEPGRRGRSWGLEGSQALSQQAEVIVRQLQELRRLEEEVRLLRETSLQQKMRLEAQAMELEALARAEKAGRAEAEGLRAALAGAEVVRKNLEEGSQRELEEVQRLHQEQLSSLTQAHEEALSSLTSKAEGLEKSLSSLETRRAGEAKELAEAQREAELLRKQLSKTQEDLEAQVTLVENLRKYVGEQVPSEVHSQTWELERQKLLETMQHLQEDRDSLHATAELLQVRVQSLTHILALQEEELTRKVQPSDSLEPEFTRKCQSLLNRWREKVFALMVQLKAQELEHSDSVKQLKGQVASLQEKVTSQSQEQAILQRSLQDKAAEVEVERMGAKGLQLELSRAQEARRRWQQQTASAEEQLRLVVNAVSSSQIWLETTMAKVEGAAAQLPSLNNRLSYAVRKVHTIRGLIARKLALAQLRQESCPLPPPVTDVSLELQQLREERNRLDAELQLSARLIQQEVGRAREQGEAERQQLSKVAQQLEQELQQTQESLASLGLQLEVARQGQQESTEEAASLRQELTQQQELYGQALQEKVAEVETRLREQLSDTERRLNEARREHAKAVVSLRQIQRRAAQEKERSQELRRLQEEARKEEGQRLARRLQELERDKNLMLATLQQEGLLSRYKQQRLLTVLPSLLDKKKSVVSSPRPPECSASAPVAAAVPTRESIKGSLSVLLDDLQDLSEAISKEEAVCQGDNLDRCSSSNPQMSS
B3: Abl interactor 2 (Homo sapiens), Q9NYB9 (parent)
chain: B2 chain
partner: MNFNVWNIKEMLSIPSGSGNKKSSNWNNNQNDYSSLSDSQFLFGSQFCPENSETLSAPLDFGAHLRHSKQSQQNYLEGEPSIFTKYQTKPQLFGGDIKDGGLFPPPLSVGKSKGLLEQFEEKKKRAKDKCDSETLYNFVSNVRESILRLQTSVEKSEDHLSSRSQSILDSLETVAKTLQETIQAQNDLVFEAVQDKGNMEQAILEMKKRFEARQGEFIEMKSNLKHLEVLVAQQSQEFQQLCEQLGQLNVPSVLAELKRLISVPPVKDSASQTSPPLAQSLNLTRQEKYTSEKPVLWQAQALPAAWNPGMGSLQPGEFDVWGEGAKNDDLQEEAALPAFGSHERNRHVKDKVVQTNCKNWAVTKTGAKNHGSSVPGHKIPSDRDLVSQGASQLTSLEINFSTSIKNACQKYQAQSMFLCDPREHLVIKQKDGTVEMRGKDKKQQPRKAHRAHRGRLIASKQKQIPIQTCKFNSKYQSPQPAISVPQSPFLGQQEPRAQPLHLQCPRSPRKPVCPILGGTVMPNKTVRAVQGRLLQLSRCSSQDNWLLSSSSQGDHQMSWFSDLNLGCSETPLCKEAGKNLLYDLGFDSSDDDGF
B4: Abl interactor 2 (Homo sapiens), Q9NYB9 (parent)
chain: B2 chain
partner: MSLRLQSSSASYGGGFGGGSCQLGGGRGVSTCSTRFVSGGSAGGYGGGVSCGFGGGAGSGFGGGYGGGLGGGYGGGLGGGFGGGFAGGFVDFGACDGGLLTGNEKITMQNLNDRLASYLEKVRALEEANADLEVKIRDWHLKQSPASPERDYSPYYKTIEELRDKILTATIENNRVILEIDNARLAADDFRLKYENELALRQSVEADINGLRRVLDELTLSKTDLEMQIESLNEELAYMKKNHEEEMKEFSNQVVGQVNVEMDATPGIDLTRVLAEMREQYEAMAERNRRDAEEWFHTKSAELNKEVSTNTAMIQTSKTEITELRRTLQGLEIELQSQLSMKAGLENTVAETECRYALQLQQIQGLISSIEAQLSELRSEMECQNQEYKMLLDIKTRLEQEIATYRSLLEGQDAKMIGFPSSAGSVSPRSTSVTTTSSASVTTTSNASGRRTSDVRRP

Variants of: B1
Conditions: with cep76_human CEP76, Q8TAP6
Chain of cep76_human CEP76, Q8TAP6 (Q8TAP6 whole entry): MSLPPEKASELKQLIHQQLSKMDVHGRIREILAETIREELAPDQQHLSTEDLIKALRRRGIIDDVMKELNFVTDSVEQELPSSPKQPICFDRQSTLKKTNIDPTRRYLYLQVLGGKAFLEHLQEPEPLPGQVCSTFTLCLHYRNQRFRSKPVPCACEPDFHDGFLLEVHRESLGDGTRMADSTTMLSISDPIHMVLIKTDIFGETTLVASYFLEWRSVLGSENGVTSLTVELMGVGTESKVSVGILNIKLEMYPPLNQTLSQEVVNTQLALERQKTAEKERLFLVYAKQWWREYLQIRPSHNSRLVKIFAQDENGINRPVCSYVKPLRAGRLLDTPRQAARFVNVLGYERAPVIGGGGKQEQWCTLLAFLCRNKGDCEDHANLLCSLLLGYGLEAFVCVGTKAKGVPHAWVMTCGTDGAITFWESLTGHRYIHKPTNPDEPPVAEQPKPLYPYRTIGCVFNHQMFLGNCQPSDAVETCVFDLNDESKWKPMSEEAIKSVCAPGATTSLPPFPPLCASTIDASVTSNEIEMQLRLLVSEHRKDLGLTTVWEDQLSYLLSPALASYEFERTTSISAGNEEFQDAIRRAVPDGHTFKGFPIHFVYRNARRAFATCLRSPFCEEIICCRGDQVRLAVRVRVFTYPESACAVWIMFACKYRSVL

Row | Variant | effect of a mutation on the interaction
1 | R643W | with no effect

Variants of: B2
Conditions: with cchcr_human CCHCR1, Q8TD31

Row | Variant | effect of a mutation on the interaction
2 | E202K | with no effect

Variants of: B2
Conditions: with cchcr_human CCHCR1, Q8TD31
Remark: another data set of the same source

Row | Variant | effect of a mutation on the interaction
3 | R373C | with no effect

Variants of: B3
Conditions: with iho1_human IHO1, Q8IYA8

Row | Variant | effect of a mutation on the interaction
4 | E202K | with no effect

Variants of: B3
Conditions: with iho1_human IHO1, Q8IYA8
Remark: another data set of the same source

Row | Variant | effect of a mutation on the interaction
5 | R373C | with no effect

Variants of: B4
Conditions: with KRT13, P13646

Row | Variant | effect of a mutation on the interaction
6 | E202K | with no effect

— IntAct's records for PubMed 29892012
